Test results as given in patent US12697404B2, “PSMA-targeting conjugate and uses thereof” (priority 2021, dated 2026).
Where two headings read alike, the source gives them in different places.

Experiments:
[1] = test system: subcutaneous LNCaP tumors; test: Comparative biodistribution study in xenograft-bearing mice; assay type: in vivo, athymic nude mice; conditions: both labeled with 212Pb, one 10 μCi dose i.v., at 1 hour, 4 hours and 24 hours post-dose injection
Description: A study was carried out in order to compare the biodistribution of PSMA-OM-00214, labeled with ^212Pb at a specific activity of 10 μCi per 10 ng of conjugate, in athymic nude mice bearing a human prostate cancer cell tumor with that of a conjugate, denoted hereinafter “DOTAM-PSMA-617”, also labeled with ^212Pb and differing from PSMA-OM-00214 in that it comprises only one PSMA ligand instead of two.
Three batches of male athymic nude mice, 7-8 weeks old and weighting 27.90±2.6 g for the first batch, 27.90±2.5 g for the second batch and 29.50±2.5 g for the third batch, at study initiation, were injected subcutaneously, into the right flank, with 10^6 LNCaP cells in 100 μL of RPMI-1640 medium/Matrigel™ (v/v: 1/1). The tumors were let grow until they reached 200-300 mm^3.
The mice were divided into a plurality of groups each comprising 3 to 14 mice.
In any case, each mouse received intravenously either one 10 μCi dose of ^212Pb-PSMA-OM-00214 (10 μCi per 10 ng of conjugate, 100 μL injection volume) or one 10 μCi dose of ^212Pb-DOTAM-PSMA-617 (10 μCi per 10 ng of conjugate, 100 μL injection volume). […]
The tubes were counted for two min. […] Standards consisting of 5 μL of the solutions injected to the mice were also counted and used for decay correction.
(§1) The percent injected dose per gram, denoted % ID/g, was calculated for each organ collected (mean±standard deviation).

[2] = test system: subcutaneous LNCaP tumors; test: ^212Pb-PSMA-OM-00214 biodistribution study in xenograft-bearing mice; assay type: in vivo, R2G2 mice; conditions: labeled with 212Pb, one 10 μCi dose i.v., 4 hours post-injection
Description: (§2) A study was carried out in order to assess the biodistribution of PSMA-OM-00214, labeled with ^212Pb at a specific activity of 10 μCi per 10 ng of conjugate, in R2G2™ mice bearing a human prostate cancer cell tumor.
(§3) 15 male R2G2™ mice, 7-8 weeks old and weighting 33.9±3.5 g at study initiation, were injected subcutaneously, into the right flank, with 10^6 LNCaP cells in 100 μL of RPMI-1640 medium/Matrigel™ (v/v: 1/1). The tumors were let grow until they reached 200-300 mm^3 (as determined by the formula: volume=0.5×length×width^2).
(§4) Then animals were randomized based on tumor size and a group of 6 mice received intravenously (into a tail vein) one 10 μCi dose of ^212Pb-PSMA-OM-00214 (10 μCi per 10 ng of conjugate, 100 μL injection volume).
(§5) The mice were sacrificed at 4 hour post-dose injection.
(§6) Blood, bladder, reproductive organs, small intestine, colon with caecum, spleen, pancreas, kidneys, stomach, liver, lung, heart, brain, femoral bone, abdominal fat, skeletal muscle, tail (as injection site) and LNCaP tumor were collected from each sacrificed mouse, weighted and transferred to individual tubes for automatic gamma counter.
(§7) The tubes were counted for two min. The background was automatically subtracted from the counts. A standard consisting of 5 μL of the solution injected to the mice was also counted for each group of mice and used for decay correction.
as §1

[3] = as above; assay type: in vivo, R2G2 mice; conditions: male, R2G2, mouse, iv, 10 uCi, total radioactivity, labeled with 212Pb, 10 μCi per 10 ng of conjugate, one 10 μCi dose i.v.
Description: as §2, §3, §4, §5, §6, §7, §1

NC(=O)CN1CCN(CC(=O)NCC2CCC(C(=O)NC(Cc3ccc4ccccc4c3)C(=O)NCCCCC(NC(=O)NC(CCC(=O)O)C(=O)O)C(=O)O)CC2)CCN(CC(N)=O)CCN(CC(=O)NCC2CCC(C(=O)NC(Cc3ccc4ccccc4c3)C(=O)NCCCCC(NC(=O)NC(CCC(=O)O)C(=O)O)C(=O)O)CC2)CC1 (centres unmarked) [PSMA-OM-00214]
tumor uptake and retention compared with DOTAM-PSMA-617 [1]: significantly higher | tumor/kidney ratio [2]: satisfactory | uptake in all major non-tumor tissues [2]: very low uptake | tissue uptake at 4 h ([3]; LNCaP tumor, 4 hours post-injection, average, read-out: tumor uptake): > 20 %ID/g | tissue uptake at 4 h ([3]; kidneys, 4 hours, read-out: kidney uptake): ~10 %ID/g
